Test results reported in IntAct's records for PubMed 15252009.

B1: Formin-binding protein 1 (Homo sapiens), Q96RU3 (parent)
chain: MSWGTELWDQFDNLEKHTQWGIDILEKYIKFVKERTEIELSYAKQLRNLSKKYQPKKNSKEEEEYKYTSCKAFISNLNEMNDYAGQHEVISENMASQIIVDLARYVQELKQERKSNFHDGRKAQQHIETCWKQLESSKRRFERDCKEADRAQQYFEKMDADINVTKADVEKARQQAQIRHQMAEDSKADYSSILQKFNHEQHEYYHTHIPNIFQKIQEMEERRIVRMGESMKTYAEVDRQVIPIIGKCLDGIVKAAESIDQKNDSQLVIEAYKSGFEPPGDIEFEDYTQPMKRTVSDNSLSNSRGEGKPDLKFGGKSKGKLWPFIKKNKLMSLLTSPHQPPPPPPASASPSAVPNGPQSPKQQKEPLSHRFNEFMTSKPKIHCFRSLKRGLSLKLGATPEDFSNLPPEQRRKKLQQKVDELNKEIQKEMDQRDAITKMKDVYLKNPQMGDPASLDHKLAEVSQNIEKLRVETQKFEAWLAEVEGRLPARSEQARRQSGLYDSQNPPTVNNCAQDRESPDGSYTEEQSQESEMKVLATDFDDEFDDEEPLPAIGTCKALYTFEGQNEGTISVVEGETLYVIEEDKGDGWTRIRRNEDEEGYVPTSYVEVCLDKNAKDS
partner: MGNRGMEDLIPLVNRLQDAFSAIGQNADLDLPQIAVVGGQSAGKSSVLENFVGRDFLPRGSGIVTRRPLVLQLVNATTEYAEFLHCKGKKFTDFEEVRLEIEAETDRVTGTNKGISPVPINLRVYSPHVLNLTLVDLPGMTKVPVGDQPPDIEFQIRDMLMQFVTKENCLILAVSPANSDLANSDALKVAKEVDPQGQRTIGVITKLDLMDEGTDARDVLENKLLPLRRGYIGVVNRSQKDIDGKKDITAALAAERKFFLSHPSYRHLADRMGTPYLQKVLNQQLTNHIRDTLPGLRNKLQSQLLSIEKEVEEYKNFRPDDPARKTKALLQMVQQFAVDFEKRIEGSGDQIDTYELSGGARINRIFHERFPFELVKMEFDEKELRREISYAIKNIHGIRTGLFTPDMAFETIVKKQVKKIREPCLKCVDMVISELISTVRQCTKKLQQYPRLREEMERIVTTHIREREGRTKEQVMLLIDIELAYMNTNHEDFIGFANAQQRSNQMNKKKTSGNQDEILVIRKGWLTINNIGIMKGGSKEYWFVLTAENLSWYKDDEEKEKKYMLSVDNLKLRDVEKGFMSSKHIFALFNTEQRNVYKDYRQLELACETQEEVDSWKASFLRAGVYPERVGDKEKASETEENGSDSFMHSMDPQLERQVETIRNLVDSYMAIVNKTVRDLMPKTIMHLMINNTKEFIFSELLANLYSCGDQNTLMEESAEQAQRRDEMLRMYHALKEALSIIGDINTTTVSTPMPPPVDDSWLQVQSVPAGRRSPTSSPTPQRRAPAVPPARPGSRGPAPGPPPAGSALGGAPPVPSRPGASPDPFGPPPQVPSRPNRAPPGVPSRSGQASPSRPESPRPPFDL
B2: Formin-binding protein 1 (Homo sapiens), Q96RU3 (parent)
chain: B1 chain
partner: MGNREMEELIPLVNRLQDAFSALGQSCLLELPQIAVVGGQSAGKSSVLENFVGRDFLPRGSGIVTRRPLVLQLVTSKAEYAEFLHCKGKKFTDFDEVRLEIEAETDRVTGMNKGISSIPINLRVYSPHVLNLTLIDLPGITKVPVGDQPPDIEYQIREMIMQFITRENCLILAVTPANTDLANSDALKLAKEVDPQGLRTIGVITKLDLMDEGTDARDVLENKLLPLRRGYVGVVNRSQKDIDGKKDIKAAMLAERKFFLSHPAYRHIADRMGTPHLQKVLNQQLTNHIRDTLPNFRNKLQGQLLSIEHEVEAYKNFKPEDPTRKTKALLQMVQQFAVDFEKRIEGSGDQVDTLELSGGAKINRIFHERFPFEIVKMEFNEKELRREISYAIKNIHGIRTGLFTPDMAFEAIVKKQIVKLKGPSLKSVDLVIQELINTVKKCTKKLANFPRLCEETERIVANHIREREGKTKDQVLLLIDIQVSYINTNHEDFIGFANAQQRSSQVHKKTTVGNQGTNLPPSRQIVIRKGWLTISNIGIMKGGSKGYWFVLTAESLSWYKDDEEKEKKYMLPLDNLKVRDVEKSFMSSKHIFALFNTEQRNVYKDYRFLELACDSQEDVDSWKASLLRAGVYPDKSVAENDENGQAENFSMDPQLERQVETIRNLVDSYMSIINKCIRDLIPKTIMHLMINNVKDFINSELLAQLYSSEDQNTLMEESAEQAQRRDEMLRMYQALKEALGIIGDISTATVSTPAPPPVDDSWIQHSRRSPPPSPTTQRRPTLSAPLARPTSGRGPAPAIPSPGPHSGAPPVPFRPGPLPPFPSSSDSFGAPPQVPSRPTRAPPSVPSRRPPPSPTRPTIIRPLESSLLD
B3: Formin-binding protein 1 (Homo sapiens), Q96RU3 (parent)
chain: B1 chain
partner: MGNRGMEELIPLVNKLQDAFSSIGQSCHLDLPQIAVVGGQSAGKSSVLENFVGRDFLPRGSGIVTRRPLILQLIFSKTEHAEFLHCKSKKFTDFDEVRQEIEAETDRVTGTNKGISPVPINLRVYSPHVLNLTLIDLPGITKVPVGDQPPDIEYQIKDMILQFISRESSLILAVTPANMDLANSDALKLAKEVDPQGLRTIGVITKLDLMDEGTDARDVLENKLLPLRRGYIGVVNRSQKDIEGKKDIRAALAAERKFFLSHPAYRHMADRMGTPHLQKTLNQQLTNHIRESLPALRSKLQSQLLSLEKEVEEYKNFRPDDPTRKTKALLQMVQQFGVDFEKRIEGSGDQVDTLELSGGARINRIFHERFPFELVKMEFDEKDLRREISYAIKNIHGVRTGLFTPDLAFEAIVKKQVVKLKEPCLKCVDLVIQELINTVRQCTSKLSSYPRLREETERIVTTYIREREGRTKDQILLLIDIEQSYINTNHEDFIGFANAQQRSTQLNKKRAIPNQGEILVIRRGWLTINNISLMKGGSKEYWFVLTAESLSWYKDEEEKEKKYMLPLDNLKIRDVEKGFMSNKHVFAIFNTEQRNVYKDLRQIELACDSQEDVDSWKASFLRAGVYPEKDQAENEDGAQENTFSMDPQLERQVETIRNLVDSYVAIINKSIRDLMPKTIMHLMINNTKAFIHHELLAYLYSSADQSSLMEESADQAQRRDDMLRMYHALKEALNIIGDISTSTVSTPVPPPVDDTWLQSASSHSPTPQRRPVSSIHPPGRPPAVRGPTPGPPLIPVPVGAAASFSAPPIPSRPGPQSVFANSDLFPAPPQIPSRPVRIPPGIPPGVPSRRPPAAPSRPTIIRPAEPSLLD

Variants of: B1
Settings: with dyn1_human DNM1, Q05193

effect of a mutation on the interaction	Variant
decreasing interaction	P602L

Variants of: B2
Settings: with dyn3_human DNM3, Q9UQ16

effect of a mutation on the interaction	Variant
decreasing interaction	P602L

Variants of: B3
Settings: with dyn2_human DNM2, P50570

effect of a mutation on the interaction	Variant
decreasing interaction	P602L
